Source: patent US10064928B2, “Peptides and combination of peptides for use in immunotherapy against CLL and other cancers” (IMMATICS BIOTECHNOLOGIES GMBH, priority 2015, dated 2018)

Target: HLA-A*02:01 (Homo sapiens, UniProt P04439, D140Y/D185E/D98H/E176V/E277Q/G131W/G231S/I119V/I121R/I166T/I218V/L300P/L318F/N151K/N90K/P208A/P217A/Q86G/Q94H/R138H/R169H/T345S)
Test: MHC binding assay (UV-ligand exchange, beta2m ELISA)
Conditions: binding of HLA-class I restricted peptides to HLA-A*02:01, β2m ELISA
Method in brief: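 Peptide–MHC complexes formed by UV-ligand exchange, cleaving a UV-sensitive peptide so the test peptide can bind. Exchange yield measured by ELISA: complexes captured on streptavidin-coated wells, diluted 100-fold, detected with HRP anti-β2m (1 h, 37 °C) and TMB at 450 nm, against refolded HLA-A*02:01/MLA-001 standards (15-500 ng/ml).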

Row | Peptide Exchange (MHC class I binding score, peptide exchange yield) | Substance
1 | “+++” (≥50 = +++) | 314 (LMKDCEAEV; listed as Homo sapiens) [compound 314]
2 | “+++” (≥50 = +++) | 315 (LVYEAPETV; listed as Homo sapiens) [compound 315]
3 | “+++” (≥50 = +++) | 316 (MLLEHGITL; listed as Homo sapiens) [compound 316]
4 | “+++” (≥50 = +++) | 317 (NLLAHIWAL; listed as Homo sapiens) [compound 317]
5 | “+++” (≥50 = +++) | 318 (NLQVTQPTV; listed as Homo sapiens) [compound 318]
6 | “+++” (≥50 = +++) | 319 (QVIPQLQTV; listed as Homo sapiens) [compound 319]
7 | “+++” (≥50 = +++) | 321 (RLLEFELAQL; listed as Homo sapiens) [compound 321]
8 | “+++” (≥50 = +++) | 324 (SLYSALQQA; listed as Homo sapiens) [compound 324]
9 | “+++” (≥50 = +++) | 325 (TLENGVPCV; listed as Homo sapiens) [compound 325]
10 | “++++” (≥75% = ++++) | 326 (VLAFLVHEL; listed as Homo sapiens) [compound 326]
11 | “++++” (≥75% = ++++) | 327 (VLIKWFPEV; listed as Homo sapiens) [compound 327]
12 | “++++” (≥75% = ++++) | 328 (VLLPQETAEIHL; listed as Homo sapiens) [compound 328]
13 | “+++” (≥50 = +++) | 330 (VLMWEIYSL; listed as Homo sapiens) [compound 330]
14 | “+++” (≥50 = +++) | 331 (VLWELAHLPTL; listed as Homo sapiens) [compound 331]
15 | “+++” (≥50 = +++) | 333 (VTLEFPQLIRV; listed as Homo sapiens) [compound 333]
16 | “+++” (≥50 = +++) | 334 (YLLEEKIASL; listed as Homo sapiens) [compound 334]
17 | “+++” (≥50 = +++) | 335 (YLYQEQYFI; listed as Homo sapiens) [compound 335]
18 | “++++” (≥75% = ++++) | 336 (YMAVTTQEV; listed as Homo sapiens) [compound 336]
19 | “++” (≥20% = ++) | 337 (YMYEKESEL; listed as Homo sapiens) [compound 337]
20 | “++++” (≥75% = ++++) | 338 (FLDMTNWNL; listed as Homo sapiens) [compound 338]
21 | “+++” (≥50 = +++) | 339 (GLWGTVVNI; listed as Homo sapiens) [compound 339]
22 | “++++” (≥75% = ++++) | 340 (KLLEEICNL; listed as Homo sapiens) [compound 340]
23 | “+++” (≥50 = +++) | 341 (LLAELPASVHA; listed as Homo sapiens) [compound 341]
24 | “+++” (≥50 = +++) | 342 (SLITPLQAV; listed as Homo sapiens) [compound 342]
25 | “+++” (≥50 = +++) | 344 (VLAFENPQV; listed as Homo sapiens) [compound 344]

More lines, now with the values behind:

Row | Substance | Peptide Exchange (MHC class I binding score, peptide exchange yield)
26 | 287 (FLWEEKFNSL; listed as Homo sapiens) [compound 287] | “++++” (≥75% = ++++)
27 | 288 (GLAESTGLLAV; listed as Homo sapiens) [compound 288] | “+++” (≥50 = +++)
28 | 289 (ILEEQPMDMLL; listed as Homo sapiens) [compound 289] | “+++” (≥50 = +++)
29 | 291 (ILLNEDDLVTI; listed as Homo sapiens) [compound 291] | “+++” (≥50 = +++)
30 | 292 (AAALIIHHV; listed as Homo sapiens) [compound 292] | “+++” (≥50 = +++)
31 | 293 (ALDIMIPMV; listed as Homo sapiens) [compound 293] | “+++” (≥50 = +++)
32 | 294 (ALLDQLHTLL; listed as Homo sapiens) [compound 294] | “++++” (≥75% = ++++)
33 | 295 (ALLQKLQQL; listed as Homo sapiens) [compound 295] | “+++” (≥50 = +++)
34 | 296 (FIAPTGHSL; listed as Homo sapiens) [compound 296] | “++” (≥20% = ++)
35 | 297 (FLVEPQEDTRL; listed as Homo sapiens) [compound 297] | “+++” (≥50 = +++)
36 | 298 (IILPVEVEV; listed as Homo sapiens) [compound 298] | “+++” (≥50 = +++)
37 | 299 (ILEENIPVL; listed as Homo sapiens) [compound 299] | “+++” (≥50 = +++)
38 | 300 (ILLNPAYDVYL; listed as Homo sapiens) [compound 300] | “+++” (≥50 = +++)
39 | 301 (AASPIITLV; listed as Homo sapiens) [compound 301] | “+++” (≥50 = +++)
40 | 302 (ILQDLTFVHL; listed as Homo sapiens) [compound 302] | “+++” (≥50 = +++)
41 | 303 (ILSQPTPSL; listed as Homo sapiens) [compound 303] | “+++” (≥50 = +++)
42 | 304 (LAIVPVNTL; listed as Homo sapiens) [compound 304] | “+” (≥10% = +)
43 | 305 (LLFPQIEGIKI; listed as Homo sapiens) [compound 305] | “+++” (≥50 = +++)
44 | 306 (VVAEELENV; listed as Homo sapiens) [compound 306] | “++” (≥20% = ++)
45 | 308 (SLYDVSRMYV; listed as Homo sapiens) [compound 308] | “++++” (≥75% = ++++)
46 | 309 (ILYGTQFVL; listed as Homo sapiens) [compound 309] | “+++” (≥50 = +++)
47 | 310 (LLSTLHLLV; listed as Homo sapiens) [compound 310] | “+++” (≥50 = +++)
48 | 311 (LLVDVEPKV; listed as Homo sapiens) [compound 311] | “+++” (≥50 = +++)
49 | 312 (LLYNSTDPTL; listed as Homo sapiens) [compound 312] | “+++” (≥50 = +++)
50 | 313 (LMADLEGLHL; listed as Homo sapiens) [compound 313] | “+++” (≥50 = +++)
